Publication PMC4222252

Columns and labels:
[1] = target: His6-tagged HIV-1 integrase E10R/E13R/K42E (HIV-1)
[2] = target: His6-tagged HIV-1 integrase E10R/E13R (HIV-1)
[3] = target: His6-tagged HIV-1 integrase K42E (HIV-1); assay: pull-down
[4] = target: His6-tagged HIV-1 integrase E10R/E13R/K42E (HIV-1); assay: pull-down
[5] = target: His6-tagged HIV-1 integrase E10R/E13R (HIV-1); assay: pull-down

With “lens epithelium-derived growth factor (LEDGF)/p75, wild type (from UniProt O75475 1-530) (natural protein)” the concerted integration activity in vitro, percent of WT IN with WT LEDGF/p75 [1] was 18% and the concerted integration activity in vitro, percent of WT IN with WT LEDGF/p75 [2] was 53%.

“LEDGF/p75 K401E/K402E/R405E (from UniProt O75475 1-530) (natural protein)” gave a percent of the WT LEDGF/p75 bound by WT IN [3] of 42%, a percent of the WT LEDGF/p75 bound by WT IN [4] of 15% and a percent of the WT LEDGF/p75 bound by WT IN [5] of 11%. It also gave a concerted integration activity in vitro, percent of WT IN with WT LEDGF/p75 [1] of 78% and a concerted integration activity in vitro, percent of WT IN with WT LEDGF/p75 [2] of 55%.
